For one molecule, Kd results are on record in PMC5635807, “Identification of Trombospondin-1 as a Novel Amelogenin Interactor by Functional Proteomics” (Frontiers in Chemistry, 2017).

For the test, the target named is T1, Thrombospondin-1 (Abnova) (UniProt P07996 19-1170).
T1 construct: Thrombospondin-1 bought from Abnova; No catalogue number is printed; the product may be a partial or tagged recombinant protein; also called TSP-1; free TSP-1; source: bought: Abnova
Briefly: SPR; Biacore 3000; AMEL-2 immobilised on a CM5 chip by amine coupling (10,000 RU); running buffer 10 mM Na2HPO4, 150 mM NaCl, pH 7.4; analytes injected at 10 μl/min for 3 min, dissociation 600 s, no regeneration; 1:1 Langmuir model. Particulars: both partners purified. A general note: SPR reads the build-up and loss of mass on a sensor chip optically.

T1 sequence (P07996 19-1170): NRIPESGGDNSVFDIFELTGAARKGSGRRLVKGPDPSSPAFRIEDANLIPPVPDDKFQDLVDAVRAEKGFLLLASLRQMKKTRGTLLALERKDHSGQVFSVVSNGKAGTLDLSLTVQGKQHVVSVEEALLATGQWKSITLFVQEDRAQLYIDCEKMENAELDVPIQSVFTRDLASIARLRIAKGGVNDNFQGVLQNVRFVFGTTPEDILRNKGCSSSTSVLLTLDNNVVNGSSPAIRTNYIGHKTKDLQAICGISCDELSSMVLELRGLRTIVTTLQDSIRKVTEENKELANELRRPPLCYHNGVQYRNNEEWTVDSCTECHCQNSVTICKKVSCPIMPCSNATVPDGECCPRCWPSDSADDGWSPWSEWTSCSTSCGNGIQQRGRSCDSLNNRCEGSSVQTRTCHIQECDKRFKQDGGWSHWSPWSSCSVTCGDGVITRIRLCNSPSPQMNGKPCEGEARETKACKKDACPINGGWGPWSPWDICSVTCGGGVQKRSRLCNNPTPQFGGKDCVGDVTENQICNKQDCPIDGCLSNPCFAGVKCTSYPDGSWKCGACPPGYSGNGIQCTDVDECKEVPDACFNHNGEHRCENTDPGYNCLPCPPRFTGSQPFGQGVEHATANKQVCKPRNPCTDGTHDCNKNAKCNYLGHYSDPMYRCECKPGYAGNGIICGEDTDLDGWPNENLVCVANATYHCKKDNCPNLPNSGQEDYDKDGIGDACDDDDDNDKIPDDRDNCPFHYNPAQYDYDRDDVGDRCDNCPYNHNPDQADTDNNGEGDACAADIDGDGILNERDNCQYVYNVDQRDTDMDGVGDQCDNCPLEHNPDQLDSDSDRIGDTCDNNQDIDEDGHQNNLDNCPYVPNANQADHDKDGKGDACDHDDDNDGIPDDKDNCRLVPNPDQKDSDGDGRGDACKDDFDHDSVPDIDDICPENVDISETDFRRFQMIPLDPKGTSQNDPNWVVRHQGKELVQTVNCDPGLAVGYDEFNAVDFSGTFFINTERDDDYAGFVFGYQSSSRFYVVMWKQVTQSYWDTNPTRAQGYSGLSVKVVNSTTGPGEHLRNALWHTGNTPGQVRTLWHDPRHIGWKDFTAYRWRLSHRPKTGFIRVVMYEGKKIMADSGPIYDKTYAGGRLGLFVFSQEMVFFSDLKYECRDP

B1: human amelogenin isoform 2 (AMELX isoform II), recombinant (natural protein)
chain: MGTWILFACLLGAAFAMPVLTPLKWYQSIRPPYPSYGYEPMGGWLHHQIIPVLSQQHPPTHTLQPHHHIPVVPAQQPVIPQQPMMPVPGQHSMTPIQHHQPNLPPPAQQPYQPQPVQPQPHQPMQPQPPVHPMQPLPPQPPLPPMFPMQPLPPMLPDLTLEAWPSTDKTKREEVD
A word on the Kd: it is the equilibrium constant for the complex coming apart. Low values mean higher affinity, high ones lower affinity. Turning to B1, the Kd stood at 878 ± 125 nM.
